Experimental data taken from patent publication US20030203373A1 (priority 2002, published 2003).
Values belong to the binder of their own block, whether it stands above or below them.

What was measured:
[1] = biological target: T1, angiotensin-converting-enzyme derived from pig kidney (pig) (UniProt F1RRW5); experiment: cell-based or functional assay
T1 sequence (looked up): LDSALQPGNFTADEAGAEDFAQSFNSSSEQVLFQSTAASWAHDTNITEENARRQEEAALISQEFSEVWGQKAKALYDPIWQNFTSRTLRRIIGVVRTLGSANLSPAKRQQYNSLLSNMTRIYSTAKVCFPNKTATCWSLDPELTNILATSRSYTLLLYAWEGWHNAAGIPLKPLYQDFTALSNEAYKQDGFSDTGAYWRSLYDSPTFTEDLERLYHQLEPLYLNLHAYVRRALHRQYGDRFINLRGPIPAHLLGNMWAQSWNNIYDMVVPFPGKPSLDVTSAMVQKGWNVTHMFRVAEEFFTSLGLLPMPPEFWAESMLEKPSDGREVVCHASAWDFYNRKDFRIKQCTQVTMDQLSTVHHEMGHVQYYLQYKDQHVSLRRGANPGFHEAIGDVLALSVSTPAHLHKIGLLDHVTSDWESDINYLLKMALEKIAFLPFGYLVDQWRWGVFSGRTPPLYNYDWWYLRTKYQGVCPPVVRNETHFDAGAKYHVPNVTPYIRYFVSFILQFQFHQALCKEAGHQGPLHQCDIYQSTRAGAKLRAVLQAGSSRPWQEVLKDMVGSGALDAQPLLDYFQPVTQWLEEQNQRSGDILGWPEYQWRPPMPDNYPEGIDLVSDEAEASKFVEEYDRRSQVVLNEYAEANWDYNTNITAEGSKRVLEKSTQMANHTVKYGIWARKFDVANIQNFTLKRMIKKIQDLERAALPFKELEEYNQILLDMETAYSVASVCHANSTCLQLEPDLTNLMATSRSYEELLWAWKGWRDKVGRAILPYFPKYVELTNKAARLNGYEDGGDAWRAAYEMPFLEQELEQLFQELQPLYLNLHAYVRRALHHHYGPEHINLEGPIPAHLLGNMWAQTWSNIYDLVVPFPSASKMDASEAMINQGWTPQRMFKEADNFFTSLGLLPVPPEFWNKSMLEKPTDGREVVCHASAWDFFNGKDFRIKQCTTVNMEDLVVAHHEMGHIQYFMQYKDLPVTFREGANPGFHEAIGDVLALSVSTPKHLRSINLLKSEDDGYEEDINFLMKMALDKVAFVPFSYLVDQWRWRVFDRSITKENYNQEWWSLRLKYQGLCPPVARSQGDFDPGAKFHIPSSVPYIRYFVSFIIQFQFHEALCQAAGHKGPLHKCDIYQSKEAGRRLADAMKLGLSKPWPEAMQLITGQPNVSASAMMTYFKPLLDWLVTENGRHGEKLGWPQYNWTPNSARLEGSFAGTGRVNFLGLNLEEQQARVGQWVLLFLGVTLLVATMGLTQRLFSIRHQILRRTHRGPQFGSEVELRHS

[2] = biological target: T2, angiotensin-converting enzyme (ACE) from pig kidney (EC 3.4.15.1 (Sigma)) (pig) (UniProt F1RRW5); experiment: cell-based or functional assay
T2 sequence (looked up): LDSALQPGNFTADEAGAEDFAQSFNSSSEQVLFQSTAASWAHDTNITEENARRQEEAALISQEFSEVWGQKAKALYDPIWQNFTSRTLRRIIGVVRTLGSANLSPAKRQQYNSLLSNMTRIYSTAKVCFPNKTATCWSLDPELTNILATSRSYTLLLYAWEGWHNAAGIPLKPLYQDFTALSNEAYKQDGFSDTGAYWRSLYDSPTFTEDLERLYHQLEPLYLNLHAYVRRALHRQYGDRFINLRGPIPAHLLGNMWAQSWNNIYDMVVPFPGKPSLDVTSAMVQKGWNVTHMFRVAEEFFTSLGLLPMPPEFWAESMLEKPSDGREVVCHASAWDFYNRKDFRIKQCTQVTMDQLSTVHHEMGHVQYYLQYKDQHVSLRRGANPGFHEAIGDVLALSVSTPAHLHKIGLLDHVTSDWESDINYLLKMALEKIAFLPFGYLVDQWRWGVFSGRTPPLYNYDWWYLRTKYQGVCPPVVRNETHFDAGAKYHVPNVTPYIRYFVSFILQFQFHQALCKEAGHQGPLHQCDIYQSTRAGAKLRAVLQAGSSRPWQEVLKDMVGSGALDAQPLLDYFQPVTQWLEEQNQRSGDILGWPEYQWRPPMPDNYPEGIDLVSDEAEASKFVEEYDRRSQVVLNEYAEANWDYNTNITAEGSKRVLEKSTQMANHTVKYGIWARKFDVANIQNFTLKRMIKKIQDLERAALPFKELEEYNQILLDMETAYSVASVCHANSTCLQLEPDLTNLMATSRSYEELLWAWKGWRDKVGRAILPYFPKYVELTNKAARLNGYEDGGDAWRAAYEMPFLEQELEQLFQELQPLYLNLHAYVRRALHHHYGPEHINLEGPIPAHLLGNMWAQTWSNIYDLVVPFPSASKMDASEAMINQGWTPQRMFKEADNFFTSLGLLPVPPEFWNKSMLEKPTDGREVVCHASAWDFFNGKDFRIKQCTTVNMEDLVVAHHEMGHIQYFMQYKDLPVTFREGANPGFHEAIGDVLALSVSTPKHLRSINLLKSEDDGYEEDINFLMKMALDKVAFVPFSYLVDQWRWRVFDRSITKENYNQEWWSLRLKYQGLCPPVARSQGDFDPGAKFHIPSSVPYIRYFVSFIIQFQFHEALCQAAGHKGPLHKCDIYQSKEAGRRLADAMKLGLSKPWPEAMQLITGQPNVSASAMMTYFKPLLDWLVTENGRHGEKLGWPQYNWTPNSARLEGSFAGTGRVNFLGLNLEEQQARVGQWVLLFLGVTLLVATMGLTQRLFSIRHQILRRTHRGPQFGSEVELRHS

IC50, ACE inhibition [1]: > 300 µM
B1: S492 (peptide)
chain: QVLSEPNEEAGAALSPLPEVPP
modifications: N-terminal pyroglutamate

% inhibition of ACE, 0.39 µM inhibitor, row A [2]: 9.98%
% inhibition of ACE, 0.39 µM inhibitor, row B [2]: 5.85%
% inhibition of ACE, 0.39 µM inhibitor, row C [2]: 4.63%
% inhibition of ACE, 0.39 µM inhibitor, row D [2]: -9.77%
% inhibition of ACE, 0.78125 µM inhibitor, row A [2]: 12.8%
% inhibition of ACE, 0.78125 µM inhibitor, row B [2]: 18.5%
% inhibition of ACE, 0.78125 µM inhibitor, row C [2]: 6.03%
% inhibition of ACE, 0.78125 µM inhibitor, row D [2]: 2.73%
% inhibition of ACE, 1.5625 µM inhibitor, row A [2]: 14.3%
% inhibition of ACE, 1.5625 µM inhibitor, row B [2]: 25.6%
% inhibition of ACE, 1.5625 µM inhibitor, row C [2]: 11.2%
% inhibition of ACE, 1.5625 µM inhibitor, row D [2]: 4.98%
% inhibition of ACE, 3.125 µM inhibitor, row A [2]: 20.4%
% inhibition of ACE, 3.125 µM inhibitor, row B [2]: 18.6%
% inhibition of ACE, 3.125 µM inhibitor, row C [2]: 16.3%
% inhibition of ACE, 3.125 µM inhibitor, row D [2]: 12.7%
% inhibition of ACE, 6.25 µM inhibitor, row A [2]: 30.6%
% inhibition of ACE, 6.25 µM inhibitor, row B [2]: 28.8%
% inhibition of ACE, 6.25 µM inhibitor, row C [2]: 25.2%
% inhibition of ACE, 6.25 µM inhibitor, row D [2]: 22.6%
% inhibition of ACE, 12.5 µM inhibitor, row A [2]: 36.8%
% inhibition of ACE, 12.5 µM inhibitor, row B [2]: 37.2%
% inhibition of ACE, 12.5 µM inhibitor, row C [2]: 35.7%
% inhibition of ACE, 12.5 µM inhibitor, row D [2]: 31.6%
% inhibition of ACE, 25 µM inhibitor, row A [2]: 55.7%
% inhibition of ACE, 25 µM inhibitor, row B [2]: 54.8%
% inhibition of ACE, 25 µM inhibitor, row C [2]: 56.7%
% inhibition of ACE, 25 µM inhibitor, row D [2]: 54.5%
% inhibition of ACE, 50 µM inhibitor, row A [2]: 69.5%
% inhibition of ACE, 50 µM inhibitor, row B [2]: 68.1%
% inhibition of ACE, 50 µM inhibitor, row C [2]: 64.2%
% inhibition of ACE, 50 µM inhibitor, row D [2]: 62.3%
% inhibition of ACE, 100 µM inhibitor, row A [2]: 81.8%
% inhibition of ACE, 100 µM inhibitor, row B [2]: 80.4%
% inhibition of ACE, 100 µM inhibitor, row C [2]: 78.9%
% inhibition of ACE, 100 µM inhibitor, row D [2]: 77.8%
% inhibition of ACE, 200 µM inhibitor, row A [2]: 89.3%
% inhibition of ACE, 200 µM inhibitor, row B [2]: 88.5%
% inhibition of ACE, 200 µM inhibitor, row C [2]: 88.4%
% inhibition of ACE, 200 µM inhibitor, row D [2]: 87.9%
fluorescence (ACE activity), 0.39 µM inhibitor, row A [2]: 813000
fluorescence (ACE activity), 0.39 µM inhibitor, row B [2]: 850000
fluorescence (ACE activity), 0.39 µM inhibitor, row C [2]: 861000
fluorescence (ACE activity), 0.39 µM inhibitor, row D [2]: 990000
fluorescence (ACE activity), 0.78125 µM inhibitor, row A [2]: 788000
fluorescence (ACE activity), 0.78125 µM inhibitor, row B [2]: 737000
fluorescence (ACE activity), 0.78125 µM inhibitor, row C [2]: 848000
fluorescence (ACE activity), 0.78125 µM inhibitor, row D [2]: 878000
fluorescence (ACE activity), 1.5625 µM inhibitor, row A [2]: 774000
fluorescence (ACE activity), 1.5625 µM inhibitor, row B [2]: 673000
fluorescence (ACE activity), 1.5625 µM inhibitor, row C [2]: 803000
fluorescence (ACE activity), 1.5625 µM inhibitor, row D [2]: 858000
fluorescence (ACE activity), 3.125 µM inhibitor, row A [2]: 720000
fluorescence (ACE activity), 3.125 µM inhibitor, row B [2]: 736000
fluorescence (ACE activity), 3.125 µM inhibitor, row C [2]: 756000
fluorescence (ACE activity), 3.125 µM inhibitor, row D [2]: 789000
fluorescence (ACE activity), 6.25 µM inhibitor, row A [2]: 628000
fluorescence (ACE activity), 6.25 µM inhibitor, row B [2]: 644000
fluorescence (ACE activity), 6.25 µM inhibitor, row C [2]: 676000
fluorescence (ACE activity), 6.25 µM inhibitor, row D [2]: 699000
fluorescence (ACE activity), 12.5 µM inhibitor, row A [2]: 573000
fluorescence (ACE activity), 12.5 µM inhibitor, row B [2]: 668000
fluorescence (ACE activity), 12.5 µM inhibitor, row C [2]: 583000
fluorescence (ACE activity), 12.5 µM inhibitor, row D [2]: 619000
fluorescence (ACE activity), 25 µM inhibitor, row A [2]: 402000
fluorescence (ACE activity), 25 µM inhibitor, row B [2]: 411000
fluorescence (ACE activity), 25 µM inhibitor, row C [2]: 394000
fluorescence (ACE activity), 25 µM inhibitor, row D [2]: 413000
fluorescence (ACE activity), 50 µM inhibitor, row A [2]: 278000
fluorescence (ACE activity), 50 µM inhibitor, row B [2]: 292000
fluorescence (ACE activity), 50 µM inhibitor, row C [2]: 326000
fluorescence (ACE activity), 50 µM inhibitor, row D [2]: 343000
fluorescence (ACE activity), 100 µM inhibitor, row A [2]: 168000
fluorescence (ACE activity), 100 µM inhibitor, row B [2]: 181000
fluorescence (ACE activity), 100 µM inhibitor, row C [2]: 194000
fluorescence (ACE activity), 100 µM inhibitor, row D [2]: 204000
fluorescence (ACE activity), 200 µM inhibitor, row A [2]: 101000
fluorescence (ACE activity), 200 µM inhibitor, row B [2]: 108000
fluorescence (ACE activity), 200 µM inhibitor, row C [2]: 109000
fluorescence (ACE activity), 200 µM inhibitor, row D [2]: 114000
B2: Peptid S548 (PLPEVPP) (peptide)
chain: PLPEVPP
